We go through eight substances from publication PMC5670239, “Structural basis for mutually exclusive co-transcriptional nuclear cap-binding complexes with either NELF-E or ARS2” (Nature Communications, 2017).

Ends that are not written are not given here.

Series [1] addresses T1, m^7GTP-CBC (Homo sapiens, UniProt P52298+Q09161).
T1 construct: 6-histidine tag (pETM30 vector) (N, cleaved yes); made in house; host or cells: CBP20 in E. coli Rosetta 2; CBP80ΔNLS in High Five insect cells; heterodimer reconstituted on Ni-sepharose
T1 sequence (Q09161 20-790): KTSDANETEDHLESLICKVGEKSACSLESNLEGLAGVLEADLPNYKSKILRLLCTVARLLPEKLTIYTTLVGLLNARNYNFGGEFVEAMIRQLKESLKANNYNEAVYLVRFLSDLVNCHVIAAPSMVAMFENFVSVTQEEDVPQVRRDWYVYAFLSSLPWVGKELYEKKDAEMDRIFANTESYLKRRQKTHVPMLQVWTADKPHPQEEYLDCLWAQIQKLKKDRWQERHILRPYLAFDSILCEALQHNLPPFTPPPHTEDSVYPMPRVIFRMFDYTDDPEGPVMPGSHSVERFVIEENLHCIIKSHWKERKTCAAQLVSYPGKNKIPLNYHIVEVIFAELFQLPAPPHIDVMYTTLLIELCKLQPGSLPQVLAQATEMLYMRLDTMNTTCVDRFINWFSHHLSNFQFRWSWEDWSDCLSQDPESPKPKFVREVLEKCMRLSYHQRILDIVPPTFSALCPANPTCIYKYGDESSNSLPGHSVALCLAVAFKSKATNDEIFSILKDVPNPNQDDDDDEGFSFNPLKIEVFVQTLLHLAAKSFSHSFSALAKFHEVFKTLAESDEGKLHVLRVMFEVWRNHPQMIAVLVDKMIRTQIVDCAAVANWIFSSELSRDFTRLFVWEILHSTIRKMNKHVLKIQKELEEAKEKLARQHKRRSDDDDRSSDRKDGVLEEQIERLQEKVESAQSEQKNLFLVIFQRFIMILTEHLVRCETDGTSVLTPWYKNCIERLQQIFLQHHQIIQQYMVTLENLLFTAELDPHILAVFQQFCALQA
T1 sequence (P52298 1-156): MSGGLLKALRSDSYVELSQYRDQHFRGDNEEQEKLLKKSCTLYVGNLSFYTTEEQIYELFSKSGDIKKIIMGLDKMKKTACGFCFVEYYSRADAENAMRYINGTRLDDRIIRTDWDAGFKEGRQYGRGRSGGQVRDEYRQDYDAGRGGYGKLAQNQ
The experiment in a line: ITC, binding to CBC in the presence of the cap analogue m^7GTP. The settings on record: for Kd: ITC, 25 °C, 20 mM HEPES, 120 mM NaCl, 2 mM TCEP, pH 7.8, CBC bound to m^7GTP, mean ± SD of at least two independent experiments, SD. An excerpt:
(§1) hARS2 isoform-4 (871 residues, UniProt:Q9BXP5-4, also known as isoform-e, NP_001122326) constructs (residues 147–871, 147–845, 763–871, 763–845, 827–871) hNELF-E (NM_002904.5) (244–380, 244–360) and hPHAX (NM_032177.3) (1–394, 103–294, 103–308, 103–327) were cloned into pETM11 (EMBL). Full-length hNELF-E (1–380) was cloned into pFASTBac and CBP20 into pETM30. Primers used are given in Supplementary Table 2. All constructs were expressed in E. coli Rosetta 2 (Novagen), except full-length NELF-E and CBP80ΔNLS (CBP80 with residues 1–19 deleted[2]), which were expressed in High Five insect cells (Life Technology). Cells were harvested and lysed by sonication in lysis buffer containing 50 mM HEPES, pH 7.8, 300 mM NaCl, 10% (v/v) glycerol, 5 mM β-mercaptoethanol. Lysates were clarified by centrifugation and applied on an equilibrated Ni-sepharose column (GE Healthcare), washed with 20 mM imidazole in lysis buffer, and eluted with 300 mM imidazole in lysis buffer. While dialysing into 20 mM HEPES, pH 7.8, 120 mM NaCl, 10% (v/v) glycerol, 5 mM β-mercaptoethanol, the N-terminal 6-histidine-tag was cleaved with His-tagged Tobacco Etch Virus (TEV) protease overnight in a ratio 1:100 mg TEV per mg protein. The cleaved protein was further purified first on Ni-sepharose to remove TEV and then using an anion exchange column (HiTrap Q, GE Healthcare) followed if necessary by a Heparin column (GE Healthcare). In both cases a NaCl gradient from 50 to 800 mM in 20 mM HEPES 7.8, 0.5 mM tris(2-carboxyethyl)phosphine was used. To reconstitute the CBC heterodimer, cleared His-tagged CBP20 lysate was first immobilised on a Ni-sepharose column. After washing the column with lysis buffer, the cleared CBP80 lysate was applied to the column and further purification steps performed as described above. To remove the access of CBP20 the flow through of the Ni-column after TEV cleavage was loaded on an anion exchange column (HiTrap Q, GE Healthcare) and CBC eluted by a NaCl gradient as described above. In the text we refer to CBP80ΔNLS and CBP80ΔNLS-CBP20 as CBP80 and CBC, respectively. ARS2^845–871, NELF-E^354–380, and NELF-E^360–380 peptides, with or without FAM label at the N-terminus, were purchased from GenScript.
For orientation: In ITC the heat of successive injections is recorded.

In series [2] the target is T2, CBC (Homo sapiens, UniProt P52298).
T2 sequence (P52298 1-156): T1 sequence (P52298 1-156)
T2 sequence (Q09161 20-790 partner): T1 sequence (Q09161 20-790)
As to the kind of experiment: ITC, binding to CBC without cap analogue. The settings on record: ITC (MicroCal ITC200), 25 °C, 20 mM HEPES, 120 mM NaCl, 2 mM TCEP, pH 7.8, single-site fit; no cap analogue pre-bound; mean ± SD of at least two independent experiments; SD.
Description: as §1, with “ARS2^845–871, NELF-E^354–380, and NELF-E^360–380 peptides, with or without FAM label at the N-terminus, were purchased from GenScript.” left out

For another series, the target named is m^7GTP-CBCmut. As to the kind of experiment: ITC, binding to mutated CBC in the presence of m^7GTP. Further details: species or system human. As to conditions: with m^7GTP; for Kd: 25 °C, pH 7.8, CBCmut = CBP20 Y50A + CBP80 Y461A/R610E/H651A, mean ± SD of 2 experiments.
Series [3] addresses T1, m^7GTP-CBC. The experiment in a line: Fluorescence polarisation with FAM-labelled C-terminal peptides. As to conditions: 40 nM FAM peptide, 25 °C, n = 3; for Change of fluorescence polarisation on addition of labelled peptide to m^7GTP-CBC: 20 mM HEPES pH 7.8, 120 mM NaCl, 2 mM TCEP, ex 495 / em 515 nm. In kind it is binding. As to the method:
(§2) Fig. 4 Incompatibility of ARS2-PHAX and NELF-E binding to CBC. a, b Competition on m^7GTP-sepharose. a In separate experiments, different amounts of ARS2^147–871 were added to preformed CBC–NELF–E complex immobilised on m^7GTP-sepharose. […] The fluorophore FAM is represented with a star. Note that different constructs of NELF-E and ARS2 were used in c, d, and e compared to f, g, and h and are therefore represented by slightly different shapes. Error bars show the SD of three experiments
Fluorescence anisotropy binding assays were performed with N-terminal FAM-labelled ARS2^845–871 and […] peptides. 40 nM peptides were titrated with increasing concentrations of proteins in 20 mM HEPES, pH 7.8, 120 mM NaCl, 2 mM tris(2-carboxyethyl)phosphine. For the competition assay CBC–ARS2 and CBC–NELF–E complexes were preformed in the presence of 25 µM m^7GTP using 40 nM ARS2^827–871(FAM) peptide together with 60 nM CBC and 40 nM NELF-E^354–380(FAM) peptide with 1 µM CBC. […] To observe a change in polarisation at reasonable protein concentrations, CBC and NELF-E^244–380 concentrations that saturate half of the FAM-labelled peptides were used to preform the individual complexes. Fluorescence polarisation was measured at 25 °C with a microplate reader (CLARIOstar BMG LABTECH) using an excitation wavelength of 495 nm and emission wavelength of 515 nm. For analysis the polarisation value for the peptide alone was subtracted from the measurements.
On the technique in general: In fluorescence polarisation assays a small probe gives low polarisation when free and higher when bound to something large.

Series [4] deals with CBC with triple mutants of both CBP20 and CBP80. The experiment in a line: m^7GTP-sepharose pull down with mutated CBC. The settings on record: CBP80 Y461A/R610E/H651A combined with CBP20 Y50A/Y89A/D107R. In kind it is binding, human.
Description: For CBC, a triple mutant in CBP80 (Y461A/R610E/H651A) was combined with various mutations in CBP20 (Y50A, Y50A/Y89A, or Y50A/Y89A/D107R). Binding of ARS2^827–871 to mutated CBC was first tested by m^7GTP-sepharose pull down (Supplementary Fig. 6).
For series [5], the target named is T2, CBC. As to the kind of experiment: Size exclusion chromatography (gel filtration) co-elution with CBC, without m^7GTP. In kind it is binding. As to conditions: fractions analysed by SDS-PAGE, absence of m^7GTP. As to the method:
(§3) Fig. 1 The interaction of CBC with ARS2 is enhanced in the presence of m^7GTP. a Schematic diagram of the domain structure of ARS2 based on ref. [26]. b Gel filtration chromatogram and Coomassie-stained SDS-PAGE of CBC-ARS2 in the presence and absence of m^7GTP. Purified recombinant CBC and ARS2^147–871 were mixed with (orange) or without (blue) 500 µM m^7GTP and subjected to gel filtration. Their elution profiles were overlaid (left) and single fractions analysed by SDS-PAGE (middle and right). Purified recombinant CBC and C-terminally truncated ARS2^147–845 were mixed with 500 µM m^7GTP and analysed in a similar way (bottom left). c ITC data and curve fit to derive the affinity of different ARS2 constructs for CBC. CBC or m^7GTP-CBC in the sample cell was titrated by ARS2. […] K D values and standard deviation represent the average from at least two independent experiments. d Sequence alignment of the C-terminus of ARS2. Conserved residues are highlighted in red. Figure made with ESPript[54]
(§4) Fig. 2 The interaction of CBC with NELF-E is enhanced in the presence of m^7GTP. a Schematic diagram of the domain structure of NELF-E. b Gel filtration chromatogram and Coomassie-stained SDS-PAGE of CBC-NELF-E in the presence and absence of m^7GTP. […] Their elution profiles were overlaid (left) and single fractions analysed by SDS-PAGE (middle and right). […]
On the technique in general: In gel filtration, larger molecules generally elute earlier.

The target in series [6] is T2, CBC. The experiment in a line: Size exclusion chromatography (gel filtration) co-elution with CBC, with m^7GTP. The settings on record: gel filtration with 500 µM m^7GTP, fractions analysed by SDS-PAGE. The format is binding. As to the method: as §3, §4
In series [7] the test system is CBC–PHAX complex immobilised on m^7GTP-sepharose. The experiment in a line: Displacement pull down on m^7GTP-sepharose, CBC–PHAX. The settings on record: different amounts added, 1 h at 4 °C, flow through and elution by SDS-PAGE. The format is binding, human. The protocol:
as §2
CBC-NELF-E^1–380 or CBC-PHAX^1–394 were immobilised on m^7GTP-sepharose and incubated for 1 h at 4 °C with different amounts of ARS2^147–871 or NELF-E^1–380 in 20 mM HEPES, pH 7.8, 120 mM NaCl, 2 mM tris(2-carboxyethyl)phosphine, respectively. The flow through, as well as the elution from the beads after extensive washing, was analysed by SDS-PAGE followed by Coomassie staining.

Description for m^7GTP-CBCmut: For CBC, a triple mutant in CBP80 (Y461A/R610E/H651A) was combined with various mutations in CBP20 (Y50A, Y50A/Y89A, or Y50A/Y89A/D107R).
ITC experiments were performed on a MicroCal ITC200 system (Malvern). Proteins were dialyzed overnight in buffer 20 mM HEPES, 120 mM NaCl, 2 mM tris(2-carboxyethyl)phosphine, pH 7.8. Injections of 1.5 µl protein A were added at an interval of 120–180 s into 205 µl of protein B in the cell, with a stirring speed of 800 rpm at 25 °C. The experimental data were analysed with MicroCal ITC Origin and were fitted to a single-site binding equation.

As a reminder, the Kd is a measure of binding affinity in units of concentration. “ARS2 827–871 F871D: ARS2 827–871 construct with F871D mutation (GRGNYDAFRGQGGYPGKPRNRMVRGDPRAIVEYRDLDAPDDVDFD)”: in the series with m^7GTP-CBC [1], the Kd was 1.8 ± 0.26 µM.
“ARS2 827–871: human ARS2 isoform 4 residues 827–871, E. coli expressed construct (APYGAGRGNYDAFRGQGGYPGKPRNRMVRGDPRAIVEYRDLDAPD; isoform 4; UniProt Q9BXP5 827-871, looked up, fragment)”: the Kd was 12.2 ± 3.5 µM in the series with CBC [2], 1 ± 0.2 µM with m^7GTP-CBC [1], about 12 µM on m^7GTP-CBCmut and 11.6 ± 1.1 µM at m^7GTP-CBCmut (SD). Moreover, in the series with m^7GTP-CBC [1] (ratio of ITC K D without / with m^7GTP), the “Enhancement of the interaction with CBC when m^7GTP is bound” value is reported as “twelve-fold”. In addition, in the series on m^7GTP-CBCmut, the “Reduction in affinity of CBCmut compared to wild-type CBC” value is “twelvefold”. For the same substance, the “Change of polarisation on titration to m^7GTP-CBC-NELF-E^354–380(FAM)” value with m^7GTP-CBC [3] (competition, 1 µM CBC, 25 µM m^7GTP) is “decrease in polarisation”. Besides, the “Co-elution with mutated CBC in m^7GTP-sepharose pull down” value in series [4] is listed as “abolished co-elution”.
Turning to “ARS2^845–871(FAM): N-terminal FAM-labelled ARS2 845–871 peptide ({FAM}-YPGKPRNRMVRGDPRAIVEYRDLDAPD; UniProt Q9BXP5 845-871, looked up, fragment) [reference compound]”, the “Change of fluorescence polarisation on addition of labelled peptide to m^7GTP-CBC” value with m^7GTP-CBC [3] is on record as “increase in fluorescence polarisation, indicating binding”.
Consider DKRTQIVYSDDVYKENLVDGF [NELF-E 360–380], for which, on m^7GTP-CBC [1], the equilibrium dissociation constant (Kd) came to 3.3 ± 1.1 µM.
“NELF-E^1–380: full-length human NELF-E, expressed in High Five insect cells”: the “Interaction with CBC by SEC” value with CBC [5] is recorded as “partially co-eluted”. For the same substance, the “Interaction with CBC by SEC in the presence of m^7GTP” value with CBC [6] is reported as “stabilised the complex”. Moreover, the “Displacement of PHAX from preformed CBC-PHAX^1–394 bound to m^7GTP-sepharose” value in series [7] was “resulted in the displacement of PHAX^1–394”.
Consider “NELF-E^354–380(FAM): N-terminal FAM-labelled NELF-E 354–380 peptide ({FAM}-PKGCHRDKRTQIVYSDDVYKENLVDGF; UniProt P18615 354-380, looked up, fragment) [reference compound]”, for which the “Change of fluorescence polarisation on addition of labelled peptide to m^7GTP-CBC” value with m^7GTP-CBC [3] is given as “increase in fluorescence polarisation, indicating binding”.
In the case of “PHAX: full-length human PHAX (phosphorylated adaptor for RNA export), residues 1–394”, in the series with m^7GTP-CBC [1], the Kd worked out at 0.13 ± 0.05 µM.
Same read-out and setting: the figure for “RNRMVRGDPRAIVEYRDLDAPDDVDFF [ARS2 845–871]” is 1.1 ± 0.16 µM.
